Measured values from patent publication US20240174746A1 (Alector, published 2024).
Positions count from the first letter of the chain named.

B1: TM-80 (antibody, V domains shown)
VH: QVQLQQPGAELVKPGASVKLSCKASGYTFTTFWMHWVKQRPGQGLEWIGNIDPSDSETHYNQEFKDKATLTVDRSSNTAYMQLSSLTSEDSAVYYCARSSNWDNFDYWGQGTAVTVSS
VL: DIVMTQAAPSVPVTPGESVSISCRSSQSLLHVNGHTYLYWFLQRPGQSPQLLIYRMSNLASGVPDRFSGSGSGTVFTLRISRVETEDVGIYYCMQHLQYPFTFGSGTKLEIK
notes: Purified from mouse hybridoma
B2: TM-84 (antibody, V domains shown)
VH: QVQLQQSGAELVKPGASVKMSCKASGYTFTTFPIEWMKQNHGKSLEWIGNFHPYNDDTKYNEKFKGKATLTVEKSSSTVYLELSRLTSDDSAVYYCARYFYGGMDYWGQGTSVTVSS
VL: DIQMTQSPASLSVSVGETVTITCRASENIYSSLGWYHQKQGKSPQLLVFAATNLADGVPSRFSGSGSGTQYSLKINSLQSEDFGTYYCQHLWSVPWTFGGGTKLEIK
notes: Purified from mouse hybridoma
B3: TM-85 (antibody, V domains shown)
VH: QVQLQQPGAELVRAGTSVKLSCKASGYTFIGYWMHWVKQRPGRGLEWIGRIDPYSGDTRYNEKFKNKATLTVDKPSSTAYMQLSSLTSEDSAVYYCARYGLGHAMDYWGQGTSVTVSS
VL: DIAMSQSQKFMSTSVGDRVSVTCKASQNVGTNVAWYQQKPGQSPKALIYSASYRYSGVPDRFTGSGSGTDFTLTISNVQSEDLAEYFCQQYNSYPLTFGAGTKLEMK
notes: Purified from mouse hybridoma
B4: TM-86 (antibody, V domains shown)
VH: EVQLQQSGPVLVKPGASVKMSCKASGYTFTDYYIHWVKQSHGRSLEWIGVISPYNDNTNYNQKFKGKATLTVDKSSSTAYMELNSLTSEDSAVYYCVRTYYSNYFDYWGQGTTLTVSS
VL: DIVMTQSPSSLSVSAGEKVTMSCKSSQSLLNSGNQKNYLAWHQQRPGQPPKLLIYGASTRESGVPDRFTGSGSGTEFTLTISSVQAEDLAVYYCQNDHSYPLTFGAGTKLELK
notes: Purified from mouse hybridoma
B5: TM-87 (antibody, V domains shown)
VH: EVQLQQSGPVLVKPGASVKLSCKASGYTFTDYYMNWVKQSHGKSLEWIGVINPYNGATSYNQKFQDKATLTVDKSSSTAYMGLNSLTSEDSAVYYCANGNYDWYFDVWGTGTTVTVSS
VL: DVQITQSPSYLAASPGETITINCRASRSISKYLAWYQEKPGKTNKLLIYSGSTLQSGIPSRFSGSGSGTDFTLTISSLEPEDFAVYYCQQHNEYPLTFGAGTKLELK
notes: Purified from mouse hybridoma
B6: TM-88 (antibody, V domains shown)
VH: EAQLQQSGPVLVKPGASVKMSCKTSGYTFTDYYINWVKQSHGKSLEWIGVINPYSGATYYTQKFKGKATLTVDKSSSTAYMELNSQTSEDSAVYYCARGGYDYGHWYFDVWGTGTTVTVSS
VL: ETTVTQSPASLSMAIGEKVTIRCITSSDIDDHMNWYRQKPGEPPEFLISEGNALRPGVPSRFSSSGYGTDFIFTIENILSEDVADYYCLQSDNLPLTFGAGTKLELK
notes: Purified from mouse hybridoma
B7: TM-91 (antibody, V domains shown)
VH: DVQLQESGPGLVKPSQSLSLTCSVTGYSITSGYYWDWIRQFPGNKLEWMGYISYDGNNNYNPSLKNRISITRDTSKNQFFLKLNSVTTEDTATYYCARAVYSVGFAYWGQGTLVTVSS
VL: B3 VL with A3V, S5T, G30Y, A46P, A100G, M106I
notes: Purified from mouse hybridoma
B8: TM-92 (antibody, V domains shown)
VH: EVQLQQSGPELVKPGASVKIPCKASGYTFTDYTMDWVKQSPGKSLEWIGHINPNDGGTFYNQKFKGKATLTVDKSSSTAYMELRSLTSEDSAVYYCARWVYYYGISYEGGAMDYWGQGTSVTVSS
VL: B5 VL with R27K, V85M, L96W, A100G, L106I
notes: Purified from mouse hybridoma
B9: TM-93 (antibody, V domains shown)
VH: QVQLKESGPGLVAPSQSLSITCTVSGFSLSSYGISWVRQPPGKGLEWLGVIWTGGGTNYNSALESRLSITKDNSKSQVFLKMNSLQTDDTARYYCARNPPKIFYDYLMYFDYWGQGTTVTVSS
VL: DIVMTQSHKLMSTSVGDRVSITCKASQDVGSAVAWYQQKPGQSPQLLIYWSSTRLPGVPDRFTGSGSGTDFTLTISNVQSEVLADYFCQQYTSYPLTFGGGTKLEIK
notes: Purified from mouse hybridoma
B10: TM-94 (antibody, V domains shown)
VH: EVQLQQSGPELVKPGASVKIPCKASGYTFTDYNMDWVKQSHGKSLEWIGDINPYNGGTLYNQKFKGKATLTVDKSSNTAYMEIRSLTYEDTAVYYCARVGYHGTPDYWGQGTTVTVSS
VL: DVVMTQTPLSLPVSLGDQASISCRSSQSLVYSNGNTYLHWYLQRPGQSPKLLIYKVSNRFSGVPDRFSGSGSGTDFTLKISRVEAEDLGVYFCSQSTHVYTFGGGTKLEIK
notes: Purified from mouse hybridoma

Biological target: T1, cynomolgus (cyno) TMEM106B (cynomolgus, UniProt Q9NUM4 2-274 (human entry))
T1 construct: Full-length cDNA transiently transfected into HEK293 cells
Assay: flow cytometry, HEK293 cells transiently transfected with cyno TMEM106B
Description: (§1) For screening of the hybridoma cell culture supernatants, humanTMEM106B-transfected HEK293 cells were aliquoted in 96-well round bottom plates (2×10⁵ cells per well) and incubated with 50 μL of hybridoma cell culture supernatant on ice for 30 minutes. […] Cell sorting was performed on a FACS Canto system (BD Biosciences) or iQue (Intellicyt), with sort gates drawn to exclude dead (i.e., propidium iodide-positive) cells. Median fluorescence intensity (MFI) of anti-mouse-APC MFI on TMEM106B+ HEK293 cells was calculated for each clone, and those displaying a signal of at least 2-fold over background compared to a secondary-antibody only well were taken forward for further analysis and characterization.

Binder	fold-change in binding over parental HEK293 cells [fold]
B1	4.33
B2	8.43
B3	0.18
B4	5.81
B5	7.21
B6	7.57
B7	2.45
B8	5.7
B9	9.21
B10	6.1

Biological target: T2, human TMEM106B (human, UniProt Q9NUM4 2-274)
T2 construct: Full-length cDNA transiently transfected into HEK293 cells; also called huTMEM106B
Assay: flow cytometry, HEK293 cells transiently transfected with human TMEM106B
Description: as §1

Binder	fold-change in binding over parental HEK293 cells [fold]
B1	9.21
B2	17.1
B3	0.26
B4	9.73
B5	12.8
B6	7.81
B7	5.22
B8	9.14
B9	11.5
B10	3.79

Biological target: T3, mouse TMEM106B (mouse, UniProt Q80X71 2-275)
T3 construct: Full-length cDNA transiently transfected into HEK293 cells; also called muTMEM106B; murine TMEM106B
Assay: flow cytometry, HEK293 cells transiently transfected with murine TMEM106B
Description: as §1

Binder	fold-change in binding over parental HEK293 cells [fold]
B1	0.39
B2	9.62
B3	0.19
B4	5.78
B5	27
B6	5.84
B7	2.41
B8	5.15
B9	8.83
B10	2.35
